The target of the test is IsdB point mutant P173A (IsdB^P173A) (Staphylococcus aureus, UniProt Q2FZF0 41-613, P173A). The test is described as follows: atomic force spectroscopy.

For one molecule, koff results are on record in publication PMC11805746 (Discover Nano, 2025).

One may read the koff as a measure of how fast the partners let go of each other. Low readings indicate a long-lived complex, high ones a short-lived complex.

B1: methemoglobin (oxidized human hemoglobin A) (complex)
chain 1: not shown
chain 2: not shown
B1 gave a koff of 0.0025 s⁻¹.
